Measurements taken from PMC6459835, “The RNA binding activity of the first identified trypanosome protein with Z-DNA-binding domains”.

How the values were obtained:
RBP7910 WT [1] = biological target: T1, RBP7910 WT (Trypanosoma brucei, UniProt Q38AH3 9-189); experiment: competition; details: RBB50: 20 mM Tris-HCl pH 7.6, 50 mM KCl, 5 mM MgCl2, 100 mg/mL BSA (so in the source), 10% glycerol, 1 mM DTT, plus 100 mM KCl and 20 U RNasin; 20 ul, 30 min, RT …
T1 sequence: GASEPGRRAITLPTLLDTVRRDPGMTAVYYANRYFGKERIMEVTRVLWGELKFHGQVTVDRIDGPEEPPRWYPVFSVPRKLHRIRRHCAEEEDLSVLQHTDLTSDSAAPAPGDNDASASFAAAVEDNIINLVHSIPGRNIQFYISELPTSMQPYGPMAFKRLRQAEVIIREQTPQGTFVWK

RBP7910 WT [2] = biological target: T1, RBP7910 WT; experiment: EMSA; details: RBB50: 20 mM Tris-HCl pH 7.6, 50 mM KCl, 5 mM MgCl2, 100 mg/mL BSA (so in the source), 10% glycerol, 1 mM DTT, plus 100 mM KCl and 20 U RNasin, 20 ul, 30 min, RT …
[3] = biological target: T2, RBP7910 WT (Trypanosoma brucei) (UniProt Q38AH3); experiment: competition; details: RBB50: 20 mM Tris-HCl pH 7.6, 50 mM KCl, 5 mM MgCl2, 100 mg/mL BSA (so in the source), 10% glycerol, 1 mM DTT, plus 100 mM KCl and 20 U RNasin, 20 ul, 30 min, RT …
T2 sequence: T1 sequence

RBP7910 WT [4] = biological target: T1, RBP7910 WT; experiment: EMSA; 95% CI 1.25-1.97; RBB50: 20 mM Tris-HCl pH 7.6, 50 mM KCl, 5 mM MgCl2, 100 mg/mL BSA (so in the source), 10% glycerol, 1 mM DTT, plus 100 mM KCl and 20 U RNasin; 20 ul, 30 min, RT; native 10% TBE gel at 4 C; details: protein: recombinant; tags: N-terminal 6xHis (pET30-a); label: 32P (UTP body or 3' pCp)
RBP7910 WT [5] = biological target: T1, RBP7910 WT; experiment: EMSA; 1 nM labeled RNA, protein titration; specificity confirmed with unlabeled poly AU; RBB50: 20 mM Tris-HCl pH 7.6, 50 mM KCl, 5 mM MgCl2, 100 mg/mL BSA (so in the source), 10% glycerol, 1 mM DTT, plus 100 mM KCl and 20 U RNasin; 20 ul, 30 min, RT; native 10% TBE gel at 4 C; details: protein: recombinant; tags: N-terminal 6xHis (pET30-a); label: 32P
RBP7910 WT [6] = biological target: T1, RBP7910 WT; experiment: competition; vs labeled gA6[14]; RBB50: 20 mM Tris-HCl pH 7.6, 50 mM KCl, 5 mM MgCl2, 100 mg/mL BSA (so in the source), 10% glycerol, 1 mM DTT, plus 100 mM KCl and 20 U RNasin; 20 ul, 30 min, RT; native 10% TBE gel at 4 C; details: protein: recombinant; tags: N-terminal 6xHis (pET30-a); label: unlabeled; one predicted stem-loop, 3' oligo(U) tail

For poly U RNA, the binding signal (% reduction of bound labeled poly AU) (RBP7910 WT [1]) was 50.

With gA6[14] (delta16G) gRNA with U-tail the Kd (RBP7910 WT [2]; 95% CI 0.18-0.27) was 0.21 nM.

Work on “GGGAUUAAAAGACAAUGUGAAUUUCUUAAGGUAAUAAAGGGAAUAAUUUUUUUUUUUUUUUU [natural CYb gRNA (gCYb[558]) with U-tail]” yielded a binding signal (% reduction of bound labeled gA6[14]) [3] of 50.

CYb pre-edited mRNA gave a binding signal (% reduction of bound labeled gA6[14]) (RBP7910 WT [1]) of 50 and a Kd (RBP7910 WT [2]; 95% CI 2.09-3.66) of 2.78 nM.

In the case of “GGGGGGACUGACAUUAAAAGAAAUGUGAAUUUUUCUCCGCUUUU [42-mer CYb gRNA (gCYb[558] USD-2A-42nt), no U-tail]”, the binding signal ([3]; scale: fold less efficient competitor than natural gCYb) is reported as 10.

B1: CYb edited mRNA (ssRNA)
RNA: GGGAAAUAUGUUUUUUCGUGUUAGAUUUUUGUUAUUUUUUUUAUUAUUUAGAAAUUUAUGUUGUCUUUUUA
With B1 the Kd (RBP7910 WT [4]) was 1.57 ± 0.06 nM.

B2: poly AU RNA (ssRNA)
RNA: GGGAUUCUUUUCGAGUCUCUUUUAUUUAUUUAUUUAUUUAUUUUUUCUCUCUUAUU
B2: binds (RBP7910 WT [5]).

B3: uridylated non-guide RNA (49 nt) (structured_RNA)
RNA: GGGUACCAGAUACAUACUAAGGAAUUCGAUAUCACUAUUUUUUUUUUUUUU
For B3, the binding signal (RBP7910 WT [6]) was 10 fold less efficient competitor than gA6[14].
